# Experimental data as given in patent US20190040149A1.
# Legend:
# cyno PD-1_Fc (cyno) = assay: bio-layer interferometry (ForteBio), Fab in solution, cyno PD-1_Fc on sensor tip
# [1] = target: human PD-1 on cells (CHO cells; T cells in the mixed lymphocyte reaction) (human) (UniProt Q15116); assay: cell-based or functional assay
# [2] = target: human PD-1 on cells (CHO cells; T cells in the mixed lymphocyte reaction) (human) (UniProt Q15116); assay: flow cytometry, remaining PD-L2-FITC signal after 100 nM IgG; competitor PD-L2-FITC
# Chain of human PD-1 on cells (CHO cells; T cells in the mixed lymphocyte reaction) (human) (Q15116 25-288 limits assumed): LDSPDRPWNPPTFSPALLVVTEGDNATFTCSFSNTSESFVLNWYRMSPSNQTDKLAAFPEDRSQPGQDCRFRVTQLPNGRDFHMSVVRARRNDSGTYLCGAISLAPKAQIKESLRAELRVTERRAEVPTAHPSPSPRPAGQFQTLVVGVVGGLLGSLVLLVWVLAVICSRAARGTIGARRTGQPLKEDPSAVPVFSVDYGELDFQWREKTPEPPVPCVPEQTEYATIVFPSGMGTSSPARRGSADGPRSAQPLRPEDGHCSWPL
# Chain of Fab of pembrolizumab (VH): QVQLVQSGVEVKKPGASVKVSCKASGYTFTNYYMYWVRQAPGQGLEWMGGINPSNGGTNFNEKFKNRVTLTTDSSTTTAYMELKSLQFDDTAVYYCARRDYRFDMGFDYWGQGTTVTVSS
# Chain of Fab of pembrolizumab (VL): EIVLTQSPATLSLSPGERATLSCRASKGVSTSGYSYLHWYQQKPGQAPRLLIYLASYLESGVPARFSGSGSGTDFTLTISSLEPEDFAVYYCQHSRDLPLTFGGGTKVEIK
Kd (cyno PD-1_Fc (cyno)) [nM],"IFNγ in supernatant, 0.01 nM IgG (IgG control, baseline of the fold change) [1] [pg/mL]","IFNγ in supernatant, 0.1 nM IgG (IgG control, baseline of the fold change) [1] [pg/mL]","IFNγ in supernatant, 1 nM IgG (IgG control, baseline of the fold change) [1] [pg/mL]","IFNγ in supernatant, 10 nM IgG (IgG control, baseline of the fold change) [1] [pg/mL]","IFNγ in supernatant, 100 nM IgG (IgG control, baseline of the fold change) [1] [pg/mL]","IL-2 in supernatant, 0.01 nM IgG (IgG control, baseline of the fold change) [1] [pg/mL]","IL-2 in supernatant, 0.1 nM IgG (IgG control, baseline of the fold change) [1] [pg/mL]","IL-2 in supernatant, 1 nM IgG (IgG control, baseline of the fold change) [1] [pg/mL]","IL-2 in supernatant, 10 nM IgG (IgG control, baseline of the fold change) [1] [pg/mL]","IL-2 in supernatant, 100 nM IgG (IgG control, baseline of the fold change) [1] [pg/mL]",MFI (PD-L2-FITC) [2] [MFI],Substance
1.2,–,–,–,–,–,–,–,–,–,–,–,Fab of nivolumab
0.47,–,–,–,–,–,–,–,–,–,–,–,Fab of pembrolizumab
–,14900,11000,11600,13500,14900,515,509,500,522,619,183000,IgG Control (antibody)
